Data on three molecules can be found in patent US20070190024A1 (INSERM INSTITUT NATIONAL DE LA SANTE ET DE LA RECH, published 2007).

Residue numbers refer to the chain shown, from its start. Names may count otherwise.

Experiment [1] addresses T1, human IL-11 receptor (human IL-11Rα and human gp130) on B13Rα1 cells (human, UniProt Q14626 23-422; P40189 23-918).
T1 construct: whole, on cells; also called Ba/F3 cells stably transfected with human gp130 and hIL-11Rα; Ba/F3 cells co-transfected with human IL-11Rα and human gp130
T1 sequence (looked up) 1: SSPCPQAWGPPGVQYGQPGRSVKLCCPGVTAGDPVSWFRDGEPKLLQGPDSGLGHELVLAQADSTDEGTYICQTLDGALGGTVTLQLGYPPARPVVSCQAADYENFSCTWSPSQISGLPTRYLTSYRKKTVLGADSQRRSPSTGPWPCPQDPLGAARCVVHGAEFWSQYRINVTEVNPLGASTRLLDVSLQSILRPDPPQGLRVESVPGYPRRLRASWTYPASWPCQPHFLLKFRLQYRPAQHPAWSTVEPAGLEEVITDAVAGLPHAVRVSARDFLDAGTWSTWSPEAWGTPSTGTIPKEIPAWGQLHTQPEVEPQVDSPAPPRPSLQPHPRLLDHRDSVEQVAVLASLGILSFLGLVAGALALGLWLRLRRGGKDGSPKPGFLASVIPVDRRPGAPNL
T1 sequence (looked up) 2: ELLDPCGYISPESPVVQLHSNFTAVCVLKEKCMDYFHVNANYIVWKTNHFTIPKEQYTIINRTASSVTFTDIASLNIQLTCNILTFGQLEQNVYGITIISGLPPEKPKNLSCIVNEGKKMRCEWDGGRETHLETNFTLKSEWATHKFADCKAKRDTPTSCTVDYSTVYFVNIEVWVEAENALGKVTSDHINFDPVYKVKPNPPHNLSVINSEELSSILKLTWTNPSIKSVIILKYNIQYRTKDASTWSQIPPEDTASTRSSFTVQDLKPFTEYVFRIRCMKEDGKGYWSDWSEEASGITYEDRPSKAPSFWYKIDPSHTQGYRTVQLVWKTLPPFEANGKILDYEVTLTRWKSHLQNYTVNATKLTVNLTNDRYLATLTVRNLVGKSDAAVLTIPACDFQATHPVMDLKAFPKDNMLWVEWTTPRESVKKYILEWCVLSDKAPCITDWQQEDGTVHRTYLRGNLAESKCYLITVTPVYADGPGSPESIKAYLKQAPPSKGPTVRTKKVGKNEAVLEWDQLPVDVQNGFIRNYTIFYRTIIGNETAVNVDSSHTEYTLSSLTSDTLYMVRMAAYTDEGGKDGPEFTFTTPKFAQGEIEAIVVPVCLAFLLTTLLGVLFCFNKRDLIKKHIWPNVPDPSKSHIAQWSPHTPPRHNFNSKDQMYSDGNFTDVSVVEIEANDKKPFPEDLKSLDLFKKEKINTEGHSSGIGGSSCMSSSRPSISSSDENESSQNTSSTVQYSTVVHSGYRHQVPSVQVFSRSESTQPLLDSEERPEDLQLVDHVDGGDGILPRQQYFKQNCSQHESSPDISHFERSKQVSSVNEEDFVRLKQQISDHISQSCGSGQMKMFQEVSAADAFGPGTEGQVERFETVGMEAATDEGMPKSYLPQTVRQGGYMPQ
Description: Scatchard analysis, 32P-labelled ligand on B13Rα1 cells; unlabelled competitor FPΔIL-11.

The target in experiment [2] is T2, murine IL-11Rα on 7TD1 cells (Class 1, low affinity sites; isolated IL-11Rα chains) (mouse, UniProt Q64385 24-432).
T2 construct: whole, on cells; also called 7TD1 Class 1 sites
T2 sequence (looked up): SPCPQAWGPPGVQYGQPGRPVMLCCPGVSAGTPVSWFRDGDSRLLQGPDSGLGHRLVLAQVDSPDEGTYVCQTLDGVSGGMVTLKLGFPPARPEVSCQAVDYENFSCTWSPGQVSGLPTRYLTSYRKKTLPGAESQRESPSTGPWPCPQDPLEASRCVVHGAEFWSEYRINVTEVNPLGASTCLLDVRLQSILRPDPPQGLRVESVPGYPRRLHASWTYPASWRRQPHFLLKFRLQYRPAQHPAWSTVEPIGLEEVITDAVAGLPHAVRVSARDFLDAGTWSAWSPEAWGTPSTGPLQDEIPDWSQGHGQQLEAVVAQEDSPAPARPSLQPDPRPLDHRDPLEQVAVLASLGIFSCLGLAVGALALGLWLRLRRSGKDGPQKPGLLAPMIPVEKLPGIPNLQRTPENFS
Description: Scatchard analysis, 32P-labelled ligand on 7TD1 cells, Class 1 sites; unlabelled competitor FPΔIL-11. Here is the method: (§1) Binding of ³²P-H/V-D/A on 7TD1 cells was carried out as described for the parental ³²P-FPΔIL-11 on B13Rα1 cells by Wang et al [Wang et al. (2002), cited supra, and incorporated by reference]. 7TD1 cells ([…]) were pre-incubated in culture medium lacking growth factor for 2 h and were washed 3 times with phosphate-buffered saline, pH 7.4 (PBS). For binding studies, radiolabelled H/V-D/A was added to cells at the indicated concentration in PBS containing 0.5% bovine serum albumin. The mixture was incubated at 4° C. for the appropriate time and bound radiolabelled H/V-D/A was separated from the free radioactivity by centrifugation at 3000 g for 1 min through a 0.2 ml layer of a mixture of 40% dioctyl phthalate and 60% dibutyl phthalate (Janssen Chimica, Beerse, Belgium). After quick freezing, the tip of each tube containing the cell pellet was cut-off and radioactivity was counted in a Beckman β-counter. Non-specific binding was determined by incubating cells with radiolabelled H/V-D/A in the presence of a 200-fold molar excess of unlabelled H/V-D/A. […]

For experiment [3], the target named is T3, murine high affinity IL-11 receptor complex (IL-11Rα with gp130) on 7TD1 cells (Class 2 sites) (mouse, UniProt Q64385 24-432; Q00560 23-917).
T3 sequence (looked up) 1: T2 sequence (looked up)
T3 sequence (looked up) 2: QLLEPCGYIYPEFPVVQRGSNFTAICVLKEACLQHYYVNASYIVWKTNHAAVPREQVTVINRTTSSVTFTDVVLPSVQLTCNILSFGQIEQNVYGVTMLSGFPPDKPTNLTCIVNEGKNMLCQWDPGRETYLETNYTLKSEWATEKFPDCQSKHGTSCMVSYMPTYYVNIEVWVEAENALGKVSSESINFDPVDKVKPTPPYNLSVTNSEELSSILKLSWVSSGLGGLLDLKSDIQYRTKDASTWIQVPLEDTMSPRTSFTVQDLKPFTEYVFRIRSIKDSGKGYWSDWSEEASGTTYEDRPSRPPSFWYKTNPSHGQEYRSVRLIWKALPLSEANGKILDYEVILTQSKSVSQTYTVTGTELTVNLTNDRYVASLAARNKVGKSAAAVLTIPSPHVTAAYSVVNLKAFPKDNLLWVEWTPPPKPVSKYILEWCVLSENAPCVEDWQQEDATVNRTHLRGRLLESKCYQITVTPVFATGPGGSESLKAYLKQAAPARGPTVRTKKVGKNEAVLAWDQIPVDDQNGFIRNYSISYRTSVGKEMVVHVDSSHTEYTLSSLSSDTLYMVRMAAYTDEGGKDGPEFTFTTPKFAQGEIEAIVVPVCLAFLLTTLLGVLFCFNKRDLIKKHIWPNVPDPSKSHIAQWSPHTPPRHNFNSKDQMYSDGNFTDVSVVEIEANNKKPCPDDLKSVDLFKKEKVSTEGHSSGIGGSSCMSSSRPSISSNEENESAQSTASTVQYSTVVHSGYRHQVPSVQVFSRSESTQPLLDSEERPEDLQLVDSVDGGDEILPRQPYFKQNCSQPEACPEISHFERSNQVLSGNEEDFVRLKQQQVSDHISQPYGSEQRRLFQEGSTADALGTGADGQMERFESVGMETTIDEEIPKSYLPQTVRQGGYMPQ
Description: cell-based or functional assay.

Experiment [4] deals with T1, human IL-11 receptor (human IL-11Rα and …). Description: Scatchard analysis, 32P-labelled ligand on B13Rα1 cells; unlabelled competitor H/V-D/A.
Experiment [5] concerns the target T4, fusion protein of human IL-11R and IL-2 (IL-11R-IL-2) (human, UniProt Q14626 23-370; P60568 21-153, limits assumed).
T4 construct: Amine-coupled to a CM5 chip at about 500 RU; also called human IL-11Rα-IL-2 fusion protein; recombinant human IL-11R-IL-2
Briefly: SPR (BiaCore 2000), IL-11R-IL-2 amine-coupled to a CM5 chip. How it is done:
(§2) These experiments were performed with a BiaCore 2000 optical biosensor (BiaCore, Uppsala, Sweden). A fusion protein of human IL-11R and IL-2 (IL-11R-IL-2) [Blanc et al. (2000). Monoclonal antibodies against the human interleukin-11 receptor alpha-chain (IL-11Ralpha) and their use in studies of human mononuclear cells. J. Immunol. Methods 241, 43-59, the content of which is herein incorporated by reference] was coupled through primary amino groups to a carboxymethyl dextran flow cell (CM5) at a low immobilisation level (about 500 RU per flow cell) compatible with kinetic binding studies. Subsequent binding of parental FPΔIL-11 or mutein was carried out in Hepes-buffered saline (pH 7.4) at a flow rate of 10 μl/minute at room temperature.
(§3) In order to find out if mutagenesis and associated conformational change of H/V-D/A have an effect on its interaction with IL-11Rα, the association and dissociation kinetic constants (kₒₙ, koff) describing parent IL-11 and H/V-D/A mutein binding to human IL-11Rα were determined by surface plasmon resonance biosensor analysis using dextran-immobilized purified human IL-11Rα-IL-2 [Blanc et al. (2000), cited supra] fusion protein as matrix.

The target in experiment [6] is T3, murine high affinity IL-11 receptor …. Description: Scatchard analysis, 32P-labelled ligand on 7TD1 cells, Class 2 sites; unlabelled competitor FPΔIL-11. How it is done: as §1
The target is the same in experiment [7]. Description: Scatchard analysis, 32P-labelled ligand on 7TD1 cells, Class 2 sites; unlabelled competitor H/V-D/A. How it is done:
as §1

Experiment [8] deals with T2, murine IL-11Rα on 7TD1 cells (Class 1, …). Description: Scatchard analysis, 32P-labelled ligand on 7TD1 cells, Class 1 sites; unlabelled competitor H/V-D/A. Here is the method:
as §1

Experiment [9] shares this target. Description: Scatchard analysis, 32P-labelled ligand on 7TD1 cells, low affinity sites. Here is the method:
as §1

Experiment [10] addresses T4, fusion protein of human IL-11R and IL-2 …. Description: SPR, immobilized human IL-11Rα-IL-2. How it is done: as §2, §3
On the technique in general: SPR reads the build-up and loss of mass on a sensor chip optically.

B1: FPΔIL-11 (parental, non-mutated recombinant human IL-11 with Flag tag and phosphorylation site, deleted of the first 31 N-terminal amino acids) (ligand)
chain: MDYKDDDDKEGRRASVASPDPRAELDSTVLLTRSLLADTRQLAAQLRDKFPADGDHNLDSLPTLAMSAGALGALQLPGVLTRLRADLLSYLRHVQWLRRAGGSSLKTLEPELGTLQARLDRLLRRLQLLMSRLALPQPPPDPPAPPLAPPSSAWGGIRAAHAILGGLHLTLDWAVRGLLLLKTRL
notes: Produced in E. coli BL21(DE3); monomer by gel filtration; in SPR it was unlabelled; also called parental FPΔIL-11; parent IL-11
With B1, the Kd in experiment [1] came out at 0.44 nM; in experiment [2] it was 7.2 nM; in experiment [4], 0.4 nM; in [5], 165 nM; in experiment [6], 0.65 nM. Further, the “concentration required to induce half-maximal proliferation (EC50) of 7TD1 cells” value (“concentration required” for short) in experiment [3] was 15 ng/mL. This molecule returned a koff in [5] of 0.000975 s⁻¹. Moreover, the kon in experiment [5] was determined as 5900 M⁻¹ s⁻¹.

B2: H/V-D/A mutein (FPΔIL-11 with H182V and D186A) (ligand)
chain: B1 chain with H168V, D172A
notes: in SPR it was unlabelled; also called H182V+D186A; mutant FPΔIL-11
B2 returned a Kd in experiment [1] of 0.72 nM. In [3], the “concentration required” value came to 0.03 ng/mL and the “fold lower EC50 of 7TD1 proliferation than wild-type IL-11” value was 400 fold. The Kd in experiment [7] is 0.6 nM. In [4], this molecule returned a Kd of 0.71 nM. Further, the equilibrium dissociation constant (Kd) in [8] is 2.7 nM. In addition, the “fold higher affinity than FPΔIL-11” value in experiment [9] was about 3 fold. Besides, in experiment [10], the “fold higher koff than parental FPΔIL-11” value came out at 14 fold, the “fold higher kon than parental FPΔIL-11” value turned out to be 35 fold and the “fold lower Kd than FPΔIL-11” value amounted to 3 fold.

B3: commercial recombinant human IL-11 (rhIL-11, R&D) (ligand)
chain: PGPPPGPPRVSPDPRAELDSTVLLTRSLLADTRQLAAQLRDKFPADGDHNLDSLPTLAMSAGALGALQLPGVLTRLRADLLSYLRHVQWLRRAGGSSLKTLEPELGTLQARLDRLLRRLQLLMSRLALPQPPPDPPAPPLAPPSSAWGGIRAAHAILGGLHLTLDWAVRGLLLLKTRL
In the case of B3, in [3], the “concentration required” value came to 15 ng/mL.

As usually defined, the Kd is the free concentration of one partner at which half of the binding sites on the other are occupied at equilibrium, for simple one-to-one binding. The term koff denotes a measure of how fast the partners let go of each other. A low value points to a long-lived complex. Usually kon stands for a measure of how fast the partners come together. Low readings indicate slow association, high ones fast association.
